According to article PMC9313797:

Columns and labels:
Experiment in all cases: ELISA
FV712‐1490 = molecular target: FV712‐1490
FV712‐1478 = molecular target: FV712‐1478
FV712‐1487 = molecular target: FV712‐1487
FV712‐1481 = molecular target: FV712‐1481
FV712‐1484 = molecular target: FV712‐1484

Kd (FV712‐1490): 1 nM
Kd (FV712‐1478): 0.2 nM
Kd (FV712‐1487): 0.6 nM
Kd (FV712‐1481): 0.2 nM
Kd (FV712‐1484): 0.6 nM
Substance: Recombinant tissue factor pathway inhibitor alpha (TFPIα) (from UniProt P10646-1 29-304) (natural protein)
